Two substances from US20080214461 can be followed below.

For series [1], the target named is activated factor VIII (FVIIIa): Recombinate Antihemophilic Factor activated with thrombin (UniProt P00451).
In the next series the target is factor X (FX) (UniProt P00742).
Chain of UniProt P00742 (P00742 41-488): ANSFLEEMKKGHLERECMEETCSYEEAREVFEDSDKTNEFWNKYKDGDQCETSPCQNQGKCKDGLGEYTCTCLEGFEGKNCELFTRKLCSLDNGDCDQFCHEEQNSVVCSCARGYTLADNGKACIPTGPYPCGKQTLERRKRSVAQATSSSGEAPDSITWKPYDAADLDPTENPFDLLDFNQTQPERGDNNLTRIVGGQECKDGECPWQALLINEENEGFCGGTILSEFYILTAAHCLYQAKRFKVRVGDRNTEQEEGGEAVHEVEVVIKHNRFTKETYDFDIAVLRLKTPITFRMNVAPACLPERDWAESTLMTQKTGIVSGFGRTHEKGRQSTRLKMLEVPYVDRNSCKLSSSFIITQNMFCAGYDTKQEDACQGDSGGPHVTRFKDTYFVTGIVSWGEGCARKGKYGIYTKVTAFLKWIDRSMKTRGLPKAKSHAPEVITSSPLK

Chain of plasma derived FIX (pdFIX), activated form pdFIXa (chain): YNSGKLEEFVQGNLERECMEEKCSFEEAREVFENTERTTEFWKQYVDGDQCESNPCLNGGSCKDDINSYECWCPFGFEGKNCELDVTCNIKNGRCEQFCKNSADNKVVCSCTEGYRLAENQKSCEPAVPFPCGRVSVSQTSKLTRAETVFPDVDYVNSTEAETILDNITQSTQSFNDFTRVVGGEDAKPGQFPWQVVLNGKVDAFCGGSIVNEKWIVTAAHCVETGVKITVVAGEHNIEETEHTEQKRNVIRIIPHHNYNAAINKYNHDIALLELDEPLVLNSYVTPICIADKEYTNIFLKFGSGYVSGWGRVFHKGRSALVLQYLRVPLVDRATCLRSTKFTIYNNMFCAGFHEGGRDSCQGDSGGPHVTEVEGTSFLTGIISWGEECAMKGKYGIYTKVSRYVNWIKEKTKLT
Chain of FIX wild type (recombinant, full length, HEK 293), activated form (chain): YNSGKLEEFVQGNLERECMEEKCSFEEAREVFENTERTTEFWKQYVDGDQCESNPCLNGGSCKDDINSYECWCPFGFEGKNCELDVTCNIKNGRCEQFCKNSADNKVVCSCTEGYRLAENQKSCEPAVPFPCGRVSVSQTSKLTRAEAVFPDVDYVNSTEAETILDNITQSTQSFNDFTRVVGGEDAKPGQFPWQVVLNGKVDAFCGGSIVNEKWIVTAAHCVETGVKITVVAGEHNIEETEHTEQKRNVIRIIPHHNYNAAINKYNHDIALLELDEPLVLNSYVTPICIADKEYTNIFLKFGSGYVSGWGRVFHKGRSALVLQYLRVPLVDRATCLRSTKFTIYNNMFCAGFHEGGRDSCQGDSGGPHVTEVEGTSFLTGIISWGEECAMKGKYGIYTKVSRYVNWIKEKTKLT
Chain of UniProt P00451 (P00451 other isoform, or with tags, fused parts or gaps): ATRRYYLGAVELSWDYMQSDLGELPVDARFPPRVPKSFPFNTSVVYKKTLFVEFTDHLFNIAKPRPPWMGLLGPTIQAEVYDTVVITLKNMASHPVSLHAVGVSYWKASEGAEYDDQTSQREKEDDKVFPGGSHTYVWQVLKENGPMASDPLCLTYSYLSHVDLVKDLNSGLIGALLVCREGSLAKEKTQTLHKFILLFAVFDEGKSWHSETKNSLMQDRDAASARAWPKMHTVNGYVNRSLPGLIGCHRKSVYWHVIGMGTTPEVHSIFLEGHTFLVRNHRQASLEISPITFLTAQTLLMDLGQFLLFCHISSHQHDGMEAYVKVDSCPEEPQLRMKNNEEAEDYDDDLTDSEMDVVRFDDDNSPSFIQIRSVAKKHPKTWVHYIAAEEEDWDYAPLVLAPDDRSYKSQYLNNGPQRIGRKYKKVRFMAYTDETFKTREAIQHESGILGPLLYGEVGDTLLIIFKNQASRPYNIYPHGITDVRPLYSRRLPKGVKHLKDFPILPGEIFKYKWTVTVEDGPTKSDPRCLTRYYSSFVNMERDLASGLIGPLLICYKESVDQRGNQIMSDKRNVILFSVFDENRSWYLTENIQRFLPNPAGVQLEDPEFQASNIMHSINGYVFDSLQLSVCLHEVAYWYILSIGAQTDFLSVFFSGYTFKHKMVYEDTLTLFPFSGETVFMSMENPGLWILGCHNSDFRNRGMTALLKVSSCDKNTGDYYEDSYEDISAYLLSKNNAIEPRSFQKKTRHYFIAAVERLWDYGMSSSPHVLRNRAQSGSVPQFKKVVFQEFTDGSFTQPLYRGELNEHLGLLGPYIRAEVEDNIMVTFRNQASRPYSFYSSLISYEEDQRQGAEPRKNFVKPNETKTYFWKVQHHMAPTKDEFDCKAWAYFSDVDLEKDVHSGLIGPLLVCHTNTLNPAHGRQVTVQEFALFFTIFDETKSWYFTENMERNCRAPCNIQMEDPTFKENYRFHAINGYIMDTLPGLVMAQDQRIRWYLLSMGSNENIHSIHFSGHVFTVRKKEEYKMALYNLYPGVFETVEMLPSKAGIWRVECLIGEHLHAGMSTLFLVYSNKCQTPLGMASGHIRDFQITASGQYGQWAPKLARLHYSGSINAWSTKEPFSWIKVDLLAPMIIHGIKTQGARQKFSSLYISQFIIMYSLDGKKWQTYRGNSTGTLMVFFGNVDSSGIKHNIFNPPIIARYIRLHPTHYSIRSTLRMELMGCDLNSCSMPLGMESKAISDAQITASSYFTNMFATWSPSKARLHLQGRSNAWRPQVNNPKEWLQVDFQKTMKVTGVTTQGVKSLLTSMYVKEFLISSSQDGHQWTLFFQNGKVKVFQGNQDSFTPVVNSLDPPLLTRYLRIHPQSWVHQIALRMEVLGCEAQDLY

As for “FIX wild type (recombinant, full length, HEK 293), activated form”, in series [1], the “ratio kcat/KM +/- FVIIIa (FX activation)” value was 36,695. Also, in the series with factor X (FX), the KM (nM), FX activation with FVIIIa was found to be 11 nM; the KM (nM), FX activation without FVIIIa came to 68 nM; the kcat (10^-3 min^-1), FX activation without FVIIIa was determined as 0.000283 s⁻¹; the kcat (min^-1), FX activation with FVIIIa stood at 102 min⁻¹. Also, in the series with factor X (FX), the kcat/KM (10^-6 nM^-1 min^-1), FX activation without FVIIIa came out at 4200 M⁻¹ s⁻¹; the kcat/KM (nM^-1 min^-1), FX activation with FVIIIa stood at 1.5e+08 M⁻¹ s⁻¹; the “rate of FX activation against pdFIXa” value was “FIX-WT and FIX-Y94F/K98T/Y177F activated FX at the same rate as pdFIXa”.

On to “plasma derived FIX (pdFIX), activated form pdFIXa”, for which, in series [1], the “ratio kcat/KM +/- FVIIIa (FX activation)” value is given as 52,430. For the same substance, in the series with factor X (FX), the KM (nM), FX activation with FVIIIa turned out to be 13 nM; the KM (nM), FX activation without FVIIIa turned out to be 65 nM; the kcat (10^-3 min^-1), FX activation without FVIIIa turned out to be 0.000217 s⁻¹; the kcat (min^-1), FX activation with FVIIIa turned out to be 131 min⁻¹. Also, in the series with factor X (FX), the kcat/KM (10^-6 nM^-1 min^-1), FX activation without FVIIIa came out at 3250 M⁻¹ s⁻¹ and the kcat/KM (nM^-1 min^-1), FX activation with FVIIIa was 1.67e+08 M⁻¹ s⁻¹.
